Assay: yeast display, Sf9 membrane polyspecificity reagent, FACS + sequencing; frameworks hold sequencing errors
How it was run: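 Polyreactivity labels are assigned by the sorting gate from which each nanobody was recovered. The gates were low and high (top ~1%), set on anti-HA fluorescence for expression and streptavidin fluorescence for reagent binding. Before sorting, galactose-induced (36–48 hours) yeast display cells were stained for 1 hour at 4 °C with 10% biotinylated, detergent-solubilized Sf9 membrane reagent.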

Sequence	polyreactivity (PSR sort gate)
QVQLVESGGGLVQAGGSLRLSCAASGITFALYAMGWYRQAPGKERELVAAISYSGGRTYYADSVKGRFTISRDNAKNTVYLQMNSLKPEDTAVYYCAAGGSGSGPYGYGYWGQGTQVTVSS	high polyreactivity
QVQLVESGGGLVQAGGSLRLSCAASGITFAYNAMGSYRQAPGKERELVARITSGGRTYYADSVKGRFTISRDNAKNTVYLQMNSLKPEDTAVYYCNAKEGSRYRKYDYWGQGTQVTVSS	low polyreactivity
QVQLVESGGGLVQAGGSLRLSCAASGITFAYYVMGWYRQAPGKERELVAAINWSGGSTYYADSVKGRFTISRDNAKNTVYLQMNSLKPEDTAVYYCAADWSTWYGEKFYWGHGTQVTVSS	high polyreactivity
QVQLVESGGGLVQAGGSLRLSCAASGITFDENTMGWYRQATGKERELVASISNGGNTYYADSVKGRFTISRDNAKNTVYLQMNSLKPEDSAVYYCAARYGYYYSRYDHWGQGTQVTVSS	low polyreactivity
QVQLVESGGGLVQAGGSLRLSCAASGITFDEYAMGWYIQAPGKERELVASISAGSTYYADSVKGRFTISRDNAKNTVYLQMNSLKPEDTAVYYCAVVVDYDAYRYWGYDYWGQGTQVTVSS	high polyreactivity
QVQLVESGGGLVQAGGSLRLSCAASGITFDHYVMGWYRQAPGKERELVAAISRRGGSTYYADSVKGRFTISRDNAKNTVYLQMNSLKPEDTAVYYCAADSSKHIGYDSWGQGTQVTVSS	high polyreactivity
QVQLVESGGGLVQAGGSLRLSCAASGITFDNNAMGWYRQAPGKEREFVADIDGSGGSTYYADSVKGRFTISRDNAKNTVYLLMNCLKPEDTAVYYCAVVVYYYTYHYWGQGTQVTVSS	low polyreactivity
QVQLVESGGGLVQAGGSLRLSCAASGITFDSYAMGWYRQAPGKERELVATISRSGTTTYYADSVKGRFTISRDNAKNTGYLQMNSLKPEDTAVYYCNTLRDYWTYHFYGAVRDGYDYWGQGTQVTVSS	low polyreactivity
QVQLVESGGGLVQAGGSLRLSCAASGITFDYYTMGWYRQAPGKERELVAGITRGGRTYYADSVKGRFTISRDNAKNTVYLQMNSLKPEDTAVYYCNADPWWRFDYWGQGTQVTVSS	low polyreactivity
QVQLVESGGGLVQAGGSLRLSCAASGITFEPNDMGWYRQAPGKERELVAAISWSGGDTYYADSVKGRFTISRDNAKNTVYLQMNSLKPEDTAVYYCAAESWVAYEYWGQGTQVTVSS	low polyreactivity
QVQLVESGGGLVQAGGSLRLSCAASGITFFGYALGWYRQAPGKERELVADITTSDSTYYADSVKGRFTISRDNAKNTVYLQMNSLKPEDTAVYYCNADYYDGGYGPGVEEYDYWGQGTQVTVSS	low polyreactivity
QVQLVESGGGLVQAGGSLRLSCAASGITFFGYAMGWYRQAPGKERELVATISRSGGSTSYADSVKGRFTISRDNAKNTVYLQMNSLKPEDTAVYYCNNRTPYLRPIMDYWGQGTQVTVSS	high polyreactivity
QVQLVESGGGLVQAGGSLRLSCAASGITFFLYGMGWYRQAPGKERELVAAISWSCASTYADSVKGRFTISRDNAKNTVYLQMNSLKPEDTAVYYCARDDNPIYSGVTYDYWGQGTQVTVSS	low polyreactivity
QVQLVESGGGLVQAGGSLRLSCAASGITFFLYTMGWYRQAPGKERELVAAITWRGTSTYYADSVKGRFTISRDNAKNTVYLQMNSLKPEDTGVYYCAARSRRGGYPRYYYWGQGTQVTVSS	high polyreactivity
QVQLVESGGGLVQAGGSLRLSCAASGITFFRYAMGWYRQAPGKERELVAAITTSGSSTFYADSVKGRFTISRDNAKNTVYLQMNSLTPEDTAVYYCATDYERYTWVGYLVTYYYWGQGTQVTVSS	high polyreactivity
QVQLVESGGGLVQAGGSLRLSCAASGITFFWYDMGWYRQAPGKERELVASISSGGTTSYADSVKGRFTISRDNAKNTVYLQMNSLKPEDTAVYYCAATHWNRWHFDYWGQGTQVTVSS	low polyreactivity
QVQLVESGGGLVQAGGSLRLSCAASGITFFYYAMGWYRQAPGKERELVAAINWSGRTYYADSVKGRFTISRDNAKNTVYLQMNSLKPEDTAVYYCAAVTYGPGVSGMDYWGQGTQVTVSS	low polyreactivity
QVQLVESGGGLVQAGGSLRLSCAASGITFGANTMGWYRQAPGKERELVAAITISGGITHYADSVKGRFTISRDNAKNTVYLQMNRLKPEDTAVYYCAAGAYWRLYPYRQRNGGRMYYWGQGTQVTVSS	low polyreactivity
QVQLVESGGGLVQAGGSLRLSCAASGITFGAYAMGWYRQAPGKERELVAVITRGADTYYADSVKGRFTISRDNAKNTVYLQMNSLKPEETAVYYCAAQIDLPYYYGSDDDDYWGQGTQVTVSS	high polyreactivity
QVQLVESGGGLVQAGGSLRLSCAASGITFGDNARGWYRQAPGKERELVAAISSGGSTDYADSVKGRFTISRDNAKNTVYLQMNSLKPEDTAVYYCAVDWVSVPEYDYWGQGTQVTVSS	low polyreactivity
QVQLVESGGGLVQAGGSLRLSCAASGITFGDNTMGWYRQAPGKERELVAAITYSSTSTYYADSVKGRFTISRDNAKNTVYLQMNSLKPEDTAVYYCAAEGPGDVVSTDYDYWGQGTQVTVSS	low polyreactivity
QVQLVESGGGLVQAGGSLRLSCAASGITFGGNAMGWYRQAPGKEMELVAAISWNGGRTYYADSVKGRFTISRDNAKNTVYLQMNSLKPEDTAVYYCNTPVFSKSSRKYYYWGQGTQVTVSS	high polyreactivity

Sequence	polyreactivity (PSR sort gate)
QVQLVESGGGLVQAGGSLRLSCAASGITFGGYAMGWYRKARGKERELVAAISWRGGRTYYADSVKGRFTISRDNAKNTVYIQMNSLKPDDTAVYYCAVGGTVYSTESDYWGQGTQVTVSS	high polyreactivity
QVQLVESGGGLVQAGGSLRLSCAASGITFGPYAMGWYRQAPGKERELVAAITWGGGSTYYADSVKGRFTISRDNAKTTVYLQMNSLKPEDTAVSYCNAEGSTTSRYLPYDYWGQGTQVTVSS	low polyreactivity
QVQLVESGGGLVQAGGSLRLSCAASGITFGPYAMGWYRQAPGKERELVATISSSGGSTYYADSVKGRFTISRDNAKNTVYLQMNSLKPEDTAVYYCAAEYYVISSPSFYEYDYWGQGTQVTVSS	low polyreactivity
QVQLVESGGGLVQAGGSLRLSCAASGITFGPYAMGWYRQATGKERELVAAINWSGGSTYYADSVKGRFTISRDNAKTTVYLQMNSLKPEDTAVYYCAAEPYKRLYQFYFWGQGTQVTVSS	high polyreactivity
QVQLVESGGGLVQAGGSLRLSCAASGITFGQYAMGWYRQAPGKERELVAVITSGGDTYYADSVKGRFTISRDNAKNTVYLQINSLKPEDTAVYYCNADDDLTSIYRYDYWGQGTQVTVSS	low polyreactivity
QVQLVESGGGLVQAGGSLRLSCAASGITFGRNAMGWYRQAPGKERELVAAISRGGSTNYADSVKGRFTISRDNAKNTVYLQMNSLKPEDTAVYYCAAQYKYRRYPKVAFEYWGQGTQVTVSS	high polyreactivity
QVQLVESGGGLVQAGGSLRLSCAASGITFGRNAMGWYRQAPGKERELVAAISRGGSTNYADSVKGRFTISRDNAKNTVYLQMNSLKPEDTAVYYGNALSWPHGSWIPIHRRYGYWGQGTQVTVSS	high polyreactivity
QVQLVESGGGLVQAGGSLRLSCAASGITFGRNTMGWYRQAPGKERELVAAIDSGGNTYADSVKGRFTISRDNAKNTVYLQMNSLKPEDTAVYYCAAVVYAYLYADYDYWGQGTQVTVSS	low polyreactivity
QVQLVESGGGLVQAGGSLRLSCAASGITFGRNTMGWYRQAPGKERELVAAIDSGGNTYADSVKGRFTISRDNAKNTVYLQMNSLKPEDTAVYYCAVDGGEFSSYGYWGLGTQVTVSS	low polyreactivity
QVQLVESGGGLVQAGGSLRLSCAASGITFGRNTMGWYRQAPGKERELVAAIDSGGNTYADSVKGRFTISRDNAKNTVYLQMNSLKPEDTAVYYCNARSYYGYGRYDYWGQGTQVTVSS	low polyreactivity
QVQLVESGGGLVQAGGSLRLSCAASGITFGRNTMGWYRQAPGKERELVAAIDSGRNTYADSVKGRFTISRDNAKNPVYLQMNSLKPEYTAVYYCNADKSNFVRGYYWGQGTQVTVSS	low polyreactivity
QVQLVESGGGLVQAGGSLRLSCAASGITFGRNTMGWYRQAPGKERELVASISYSGTTTYYADSVKGRFTISRDNAKNTVYLQMNSLKPEDTAVYYCNKRWRYYDMDYWGQGTQVTVSS	low polyreactivity
QVQLVESGGGLVQAGGSLRLSCAASGITFGRNTMGWYRQAPGKESELVAAIDSGGNTYADSVKGRFTISRDNAKNTVYLQMNSLKPEDTAVYYCAADNSVGEYQRVDYDYWGQGTQVTVSS	low polyreactivity
QVQLVESGGGLVQAGGSLRLSCAASGITFGSYAMGGYRQAPGKERELVAAITRRGDNTYYADSVKGRFTISRDNAKNTVYLQMNSLKPEDTAVYYCNAAKGGRYPDYDYWGQGTQVTVSS	high polyreactivity
QVQLVESGGGLVQAGGSLRLSCAASGITFGSYAMGWYRQAPGKERELVAAISRSGGSTYYADSVKGRFTISRDNAKNTVYLQMNSLKPEDTAVYYCAVRYVYYREGDYWGQGTQVSVSS	high polyreactivity
QVQLVESGGGLVQAGGSLRLSCAASGITFGSYAMGWYRQAPGKERELVAAISRSGGSTYYADSVKGRFTISRDNEKNTVYLQMNSLKPEDTAVYYCAVRYVYYREGDYWGQGTQVTVSS	high polyreactivity
QVQLVESGGGLVQAGGSLRLSCAASGITFGSYAMGWYRQAPGKERELVAAITWRGGSTFYADSVKGRFTISRDNAKNTVYLQMNSLKPDDTAVYYCAATLTKYLPRYYWGQGTQVTVSS	low polyreactivity
QVQLVESGGGLVQAGGSLRLSCAASGITFGWNAMGWYRQAPGKEWELVAAITEDGYSTYYADSVKGRFTISRDNEKNTVYLQMNSLKPEDTAVYYCAAEYYDVYTYVQYDSWGQGTQVTVSS	high polyreactivity
QVQLVESGGGLVQAGGSLRLSCAASGITFGWYAMGWYRQAPGKERELVAAISTGSSTYYADSVKGRFTISRDNAKNTVYLQMNSLKPEDTAVYYCAAYYGISFDYWGQGSQVTVSS	high polyreactivity
QVQLVESGGGLVQAGGSLRLSCAASGITFGYNAMGWYIQAPGKERELVASISYSGDSTYYADSVKGRFTISRDNAKNTVYLLMNSLKPEDTAVYYCNVRNRPGGEINDYDYWGQGTQVTVSS	low polyreactivity
QVQLVESGGGLVQAGGSLRLSCAASGITFGYYAMGWYRQAPGKERELVAAISRTGSTTYYADSVKGRFTISRDNAKNTVYLQMNRLKPEDTAVYYCAARRWGTNGGGSPMYYWGQGTQVTVSS	high polyreactivity

Source: the nanobody polyreactivity screen of Harvey et al. (2022)
